Source: patent publication US20060073508A1 (published 2006)

Biological target: GRK2 (βARK1)
Assay: cell-based or functional assay

B1: hemagglutinin epitope-tagged wild-type human alpha-2B adrenergic receptor (receptor)
chain: YPYDVPDYAMDHQDPYSVQATAAIAAAITFLILFTIFGNALVILAVLTSRSLRAPQNLFLVSLAAADILVATLIIPFSLANELLGYWYFRRTWCEVYLALDVLFCTSSIVHLCAISLDRYWAVSRALEYNSKRTPRRIKCIILTVWLIAAVISLPPLIYKGDQGPQPRGRPQCKLNQEAWYILASSIGSFFAPCLIMILVYLRIYLIAKRSNRRGPRAKGGPGQGESKQPRPDHGGALASAKLPALASVASAREVNGHSKSTGEKEEGETPEDTGTRALPPSWAALPNSGQGQKEGVCGASPEDEAEEEEEEEEEEEECEPQAVPVSPASACSPPLQQPQGSRVLATLRGQVLLGRGVGAIGGQWWRRRAQLTREKRFTFVLAVVIGVFVLCWFPFFFSYSLGAICPKHCKVPHGLFQFFFWIGYCNSSLNPVIYTIFNQDFRRAFRRILCRPWTQTAW
agonist-promoted whole cell phosphorylation of the receptor (10 µM norepinephrine): 5.84 fold increase
